From patent US20240400670A1 (JIANGSU HENGRUI PHARMACEUTICALS, published 2024)

T1: human IL-23 (Sino Biological, CT048-H08H) (human, UniProt Q9NPF7 20-189; P29460 23-328)
T1 sequence (looked up) 1: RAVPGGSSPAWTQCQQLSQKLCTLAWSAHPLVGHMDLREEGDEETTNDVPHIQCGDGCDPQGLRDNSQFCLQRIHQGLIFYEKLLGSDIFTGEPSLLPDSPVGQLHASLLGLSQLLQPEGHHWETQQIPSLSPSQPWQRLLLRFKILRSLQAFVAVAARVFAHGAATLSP
T1 sequence (looked up) 2: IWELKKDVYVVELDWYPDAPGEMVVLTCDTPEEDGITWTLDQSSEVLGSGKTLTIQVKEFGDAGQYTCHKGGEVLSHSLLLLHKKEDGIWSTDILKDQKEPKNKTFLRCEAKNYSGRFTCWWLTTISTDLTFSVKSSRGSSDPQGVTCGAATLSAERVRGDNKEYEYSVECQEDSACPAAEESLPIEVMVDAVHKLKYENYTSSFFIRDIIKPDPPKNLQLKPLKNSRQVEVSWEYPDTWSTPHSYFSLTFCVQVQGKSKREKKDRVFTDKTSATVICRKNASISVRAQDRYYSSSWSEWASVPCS


Key:
[1] = molecular target: T1, human IL-23 (Sino Biological, …); assay: cell-based or functional assay
[2] = molecular target: T1, human IL-23 (Sino Biological, …); assay: SPR (Biacore), Protein A capture of sample, 1:1 model
Protocol: A certain amount of test sample was subjected to affinity capture by a biosensor chip Protein A (GE, 29127556), and then antigens at a series of concentration gradients were allowed to flow on the surface of the chip. The reaction signals were detected in real time by using Biacore (GE, 8 K) to obtain association and dissociation curves. After the dissociation was completed for each cycle, the biochip was washed and regenerated with a 10 mM glycine-hydrochloric acid solution at pH 1.5 (GE, BR-1003-54). Fitting was performed based on the experimental data using BlAevaluation version 4.1 software with a 1:1 model, and affinity values were obtained.

| Binder | Activity in inhibiting proliferation of BaF3-IL-23R cells (IC50, nM) [1] | Kd [2] | koff [2] | kon [2] |
| --- | --- | --- | --- | --- |
| Hu38-10 (antibody, human IgG1, kappa, L234A L235A, V domains shown, humanized mAb38, IgG1/kappa) VH: EFQLVQSGAEVKKPGASVKVSCKASGYSFTDHNMNWVRQAPGQRLEWMGVINPNYGTTTYNQKFKGRVTITVDQSASTAYMELSSLRSEDTAVYYCARRGFAYWGQGTLVTVSS VL: DIVMTQTPLSLPVTPGEPASISCRSSKSLLYKDGKTYLNWFLQKPGQSPQLLIYLMSTRASGVPDRFSGSGSGTDLTLKISRVEAEDVGVYYCQQIAEYPFTFGSGTKLEIKR | 0.116 nM | 0.197 nM | 7.07e-05 s⁻¹ | 358000 M⁻¹ s⁻¹ |
| Hu38-3 (antibody, human IgG1, kappa, L234A L235A, V domains shown, humanized mAb38, IgG1/kappa) VH: EFQLVQSGAEVKKPGASVKVSCKASGYTFTDHNMNWVRQAPGQRLEWMGVINPNYGTTTYNQKFKGRVTITVDTSASTAYMELSSLRSEDTAVYYCARRGFAYWGQGTLVTVSS VL: DIVITQTPLSLPVTPGEPASISCRSSKSLLYKDGKTYLNWFLQRPGQSPQLLIYLMSTRASGVPDRFSGSGSGTDLTLKISRVEAEDVGVYYCQQIAEYPFTFGSGTKLEIKR | 0.174 nM | 0.113 nM | 4.44e-05 s⁻¹ | 393000 M⁻¹ s⁻¹ |
| Hu38-12 (antibody, human IgG1, kappa, L234A L235A, V domains shown, humanized mAb38, IgG1/kappa) VH: EFQLVQSGAEVKKPGASVKVSCKASGYSFTDHNMNWVRQAPGQRLEWMGVINPNYGTTTYNQKFKGRVTITVDQSASTAYMELSSLRSEDTAVYYCARRGFAYWGQGTLVTVSS VL: DIVMTQTPLSLPVTPGEPASISCRSSKSLLYKDGKTYLNWFLQKPGQSPQLLIYLMQTRASGVPDRFSGSGSGTDLTLKISRVEAEDVGVYYCQQIAEYPFTFGSGTKLEIKR | 0.184 nM | 0.191 nM | 6.12e-05 s⁻¹ | 321000 M⁻¹ s⁻¹ |
| Hu38-6 (antibody, human IgG1, kappa, L234A L235A, V domains shown, humanized mAb38, IgG1/kappa) VH: EVQLVQSGAEVKKPGASVKVSCKASGYSFTDHNMNWVRQAPGQRLEWMGVINPNYGTTTYNQKFKGRVTITVDTSASTAYMELSSLRSEDTAVYYCARRGFAYWGQGTLVTVSS VL: DIVMTQTPLSLPVTPGEPASISCRSSKSLLYKDGKTYLNWFLQKPGQSPQLLIYLMSTRASGVPDRFSGSGSGTDLTLKISRVEAEDVGVYYCQQIAEYPFTFGSGTKLEIKR | 0.136 nM | 0.143 nM | 3.91e-05 s⁻¹ | 273000 M⁻¹ s⁻¹ |
| Hu38-15 (antibody, human IgG1, kappa, L234A L235A, V domains shown, humanized mAb38, IgG1/kappa) VH: EFQLVQSGAEVKKPGASVKVSCKASGYSFTDHNMNWVRQAPGQSLEWMGVINPNYGTTTYNQKFKGRVTITVDQSASTAYMELSSLRSEDTAVYYCARRGFAYWGQGTLVTVSS VL: DIVITQTPLSLPVTPGEPASISCRSSKSLLYKDGKTYLNWFLQRPGQSPQLLIYLMSTRASGVPDRFSGSGSGTDLTLKISRVEAEDVGVYYCQQIAEYPFTFGSGTKLEIKR | 0.149 nM | 0.168 nM | 8.3e-05 s⁻¹ | 494000 M⁻¹ s⁻¹ |

The next lines start with the values.

| Activity in inhibiting proliferation of BaF3-IL-23R cells (IC50, nM) [1] | Kd [2] | koff [2] | kon [2] | Binder |
| --- | --- | --- | --- | --- |
| 0.168 nM | 0.176 nM | 6.15e-05 s⁻¹ | 349000 M⁻¹ s⁻¹ | Hu38-11 (antibody, human IgG1, kappa, L234A L235A, V domains shown, humanized mAb38, IgG1/kappa) VH: EFQLVQSGAEVKKPGASVKVSCKASGYSFTDHNMNWVRQAPGQRLEWMGVINPNYGTTTYNQKFKGRVTITVDQSASTAYMELSSLRSEDTAVYYCARRGFAYWGQGTLVTVSS VL: DIVITQTPLSLPVTPGEPASISCRSSKSLLYKDGKTYLNWFLQRPGQSPQLLIYLMSTRASGVPDRFSGSGSGTDLTLKISRVEAEDVGVYYCQQIAEYPFTFGSGTKLEIKR |
| 0.152 nM | 0.175 nM | 5.45e-05 s⁻¹ | 312000 M⁻¹ s⁻¹ | Hu38-14 (antibody, human IgG1, kappa, L234A L235A, V domains shown, humanized mAb38, IgG1/kappa) VH: EFQLVQSGAEVKKPGASVKVSCKASGYSFTDHNMNWVRQAPGQSLEWMGVINPNYGTTTYNQKFKGRVTITVDQSASTAYMELSSLRSEDTAVYYCARRGFAYWGQGTLVTVSS VL: DIVMTQTPLSLPVTPGEPASISCRSSKSLLYKDGKTYLNWFLQKPGQSPQLLIYLMSTRASGVPDRFSGSGSGTDLTLKISRVEAEDVGVYYCQQIAEYPFTFGSGTKLEIKR |
| 0.174 nM | 0.168 nM | 4.75e-05 s⁻¹ | 282000 M⁻¹ s⁻¹ | Hu38-8 (antibody, human IgG1, kappa, L234A L235A, V domains shown, humanized mAb38, IgG1/kappa) VH: EVQLVQSGAEVKKPGASVKVSCKASGYSFTDHNMNWVRQAPGQRLEWMGVINPNYGTTTYNQKFKGRVTITVDTSASTAYMELSSLRSEDTAVYYCARRGFAYWGQGTLVTVSS VL: DIVMTQTPLSLPVTPGEPASISCRSSKSLLYKDGKTYLNWFLQKPGQSPQLLIYLMQTRASGVPDRFSGSGSGTDLTLKISRVEAEDVGVYYCQQIAEYPFTFGSGTKLEIKR |
| 0.146 nM | 0.161 nM | 5.49e-05 s⁻¹ | 341000 M⁻¹ s⁻¹ | Hu38-16 (antibody, human IgG1, kappa, L234A L235A, V domains shown, humanized mAb38, IgG1/kappa) VH: EFQLVQSGAEVKKPGASVKVSCKASGYSFTDHNMNWVRQAPGQSLEWMGVINPNYGTTTYNQKFKGRVTITVDQSASTAYMELSSLRSEDTAVYYCARRGFAYWGQGTLVTVSS VL: DIVMTQTPLSLPVTPGEPASISCRSSKSLLYKDGKTYLNWFLQKPGQSPQLLIYLMQTRASGVPDRFSGSGSGTDLTLKISRVEAEDVGVYYCQQIAEYPFTFGSGTKLEIKR |
| 0.179 nM | 0.152 nM | 7.41e-05 s⁻¹ | 486000 M⁻¹ s⁻¹ | Hu38-7 (antibody, human IgG1, kappa, L234A L235A, V domains shown, humanized mAb38, IgG1/kappa) VH: EVQLVQSGAEVKKPGASVKVSCKASGYSFTDHNMNWVRQAPGQRLEWMGVINPNYGTTTYNQKFKGRVTITVDTSASTAYMELSSLRSEDTAVYYCARRGFAYWGQGTLVTVSS VL: DIVITQTPLSLPVTPGEPASISCRSSKSLLYKDGKTYLNWFLQRPGQSPQLLIYLMSTRASGVPDRFSGSGSGTDLTLKISRVEAEDVGVYYCQQIAEYPFTFGSGTKLEIKR |
| 0.168 nM | 0.206 nM | 4.56e-05 s⁻¹ | 222000 M⁻¹ s⁻¹ | Hu38-1 (antibody, human IgG1, kappa, L234A L235A, V domains shown, humanized mAb38, IgG1/kappa) VH: EFQLVQSGAEVKKPGASVKVSCKASGYTFTDHNMNWVRQAPGQRLEWMGVINPNYGTTTYNQKFKGRVTITVDTSASTAYMELSSLRSEDTAVYYCARRGFAYWGQGTLVTVSS VL: DIVMTQTPLSLPVTPGEPASISCRSSKSLLYKDGKTYLNWYLQKPGQSPQLLIYLMSTRASGVPDRFSGSGSGTDFTLKISRVEAEDVGVYYCQQIAEYPFTFGSGTKLEIKR |
